Reference: US20030200558A1 (MONSANTO, published 2003)

Biological target: the molecule itself
Test: sucrose gradient sedimentation, anti-FLAG western (self-assembly)
Procedure: (§1) To determine if the recombinant forms of β subunit expressed in E. coli from pMON39328 and pMON39329 could self-assemble to form trimers, aliquots of the soluble protein fraction from E. coli lysates are layered onto 12 ml of a 5-25% sucrose density gradient and centrifuged at 36,000 rpm for 17.5 hours at 20° C. (Sorvall TH-641 rotor; Sorvall Ultra Pro 80 ultracentrifuge). Following centrifugation, the gradient is divided into fractions using a Labconco Autodensi-Flow instrument (Labconco, Kansas City, Mo.), and each fraction is analyzed by western blot analysis using Anti-FLAG M2 antibody (Stratagene Corporation, LaJolla, Calif.) to determine which fractions contained β-conglycinin β subunit. 7S and […] soy protein fractions, as well as ovalbumin (45 kD) and aldolase (158 kD), are run as size markers on separate gradients.

Row | Protein | binding result
1 | epitope (FLAG)-tagged form of the β-conglycinin β subunit encoded by pMON39328 (other, Expressed in E. coli. pMON39335 encodes the same protein (silent change TTA to CTT at Leu24); also called pMON39335) MDYKDDDDKLKVREDENNPFYLRSSNSFQTLFENQNGRIRLLQRFNKRSPQLENLRDYRIVQFQSKPNTILLPHHADADFLLFVLSGRAILTLVNNDDRDSYNLHPGDAQRIPAGTTYYLVNPHDHQNLKIIKLAIPVNKPGRYDDFFLSSTQAQQSYLQGFSHNILETSFHSEFEEINRVLLGEEEEQRQQEGVIVELSKEQIRQLSRRAKSSSRKTISSEDEPFNLRSRNPIYSNNFGKFFEITPEKTPQLRDLDIFLSSVDINEGALLLPHFNSKAIVILVINEGDANIELVGIKEQQQKQKQEEEPLEVQRYRAELSEDDVFVIPAAYPFVVNATSNLNFLAFGINAENNQRNFLAGEKDNVVRQIERQVQELAFPGSAQDVERLLKKQRESYFVDAQPQQKEEGSKGRKGPFPSILGALY | binds
2 | mature form (plus additional methionine encoded by start codon) of the β-conglycinin β subunit encoded by pMON39329 (other, expressed in E. coli; also called native form) MLKVREDENNPFYLRSSNSFQTLFENQNGRIRLLQRFNKRSPQLENLRDYRIVQFQSKPNTILLPHHADADFLLFVLSGRAILTLVNNDDRDSYNLHPGDAQRIPAGTTYYLVNPHDHQNLKIIKLAIPVNKPGRYDDFFLSSTQAQQSYLQGFSHNILETSFHSEFEEINRVLLGEEEEQRQQEGVIVELSKEQIRQLSRRAKSSSRKTISSEDEPFNLRSRNPIYSNNFGKFFEITPEKTPQLRDLDIFLSSVDINEGALLLPHFNSKAIVILVINEGDANIELVGIKEQQQKQKQEEEPLEVQRYRAELSEDDVFVIPAAYPFVVNATSNLNFLAFGINAENNQRNFLAGEKDNVVRQIERQVQELAFPGSAQDVERLLKKQRESYFVDAQPQQKEEGSKGRKGPFPSILGALY | binds

Biological target: the molecule itself
Test: as above
Remark: another data set of the same source
Procedure: as §1
This example sets forth confirmation of the protein structure from the expression of modified β-conglycinin β subunit clones. The assembly properties of the following modified forms of the β subunit (indicated by mutant ID number), each containing a different tryptophan substitution, are determined as described in Example 6. Western blot analysis of sucrose gradient fractions is carried out as in Example 6 using anti-FLAG antibody.

Row | Protein | binding result
3 | β-conglycinin β subunit mutant 39328-27 (other) MDYKDDDDKLKVREDENNPFWLRSSNSFQTLFENQNGRIRLLQRFNKRSPQLENLRDWRIVQFQSKPNTILLPWHADADFLLFVLSGRAILTLVNNDDRDSWNLHPGDAQRIPAGTTWWLVNPHDHQNLKIIKLAIPVNKPGRYDDFFLSSTQAQQSYLQGFSHNILETSFHSEFEEINRVLLGEEEEQRQQEGVIVELSKEQIRQLSRRAKSSSRKTISSEDEPFNLRSRNPIYSNNFGKFFEITPEKTPQLRDLDIFLSSVDINEGALLLPHFNSKAIVILVINEGDANIELVGIKEQQQKQKQEEEPLEVQRYRAELSEDDVFVIPAAYPFVVNATSNLNFLAFGINAENNQRNFLAGEKDNVVRQIERQVQELAFPGSAQDVERLLKKQRESYFVDAQPQQKEEGSKGRKGPFPSILGALY | no binding
4 | β-conglycinin β subunit mutant 39328-36 (other) MDYKDDDDKLKVREDENNPFYLRSSNSFQTLFENQNGRIRLLQRFNKRSPQLENLRDWRIVQFQSKPNTILLPHHADADFLLFVLSGRAILTLVNNDDRDSWNLHPGDAQRIPAGTTYYLVNWHDHQNLKIIKLAIPVNKPGRWDDFFLSSTQAQQSWLQGFSHNILETSFHSEFEEINRVLLGEEEEQRQQEGVIVELSKEQIRQLSRRAKSSSRKTISSEDEWFNLRSRNPIWSNNFGKFFEITPEKTWQLRDLDIFLSSVDINEGALLLPHFNSKAIVILVINEGDANIELVGIKEQQQKQKQEEEPLEVQRWRAELSEDDVFVIPAAYPFVVNATSNLNFLAFGINAENNQRNFLAGEKDNVVRQIERQVQELAFPGSAQDVERLLKKQRESYFVDAQPQQKEEGSKGRKGPFPSILGALY | no binding
5 | β-conglycinin β subunit mutant 39328-59 (other) MDYKDDDDKLKVREDENNPFWLRSSNSFQTLFENQNGRIRLLQRFNKRSPQLENLRDWRIVQFQSKPNTILLPHHADADFLLFVLSGRAILTLVNNDDRDSWNLHPGDAQRIPAGTTYWLVNWHDHQNLKIIKLAIPVNKPGRWDDFFLSSTQAQQSWLQGFSHNILETSFHSEFEEINRVLLGEEEEQRQQEGVIVELSKEQIRQLSRRAKSSSRKTISSEDEPFNLRSRNPIYSNNFGKFFEITPEKTPQLRDLDIFLSSVDINEGALLLPHFNSKAIVILVINEGDANIELVGIKEQQQKQKQEEEPLEVQRWRAELSEDDVFVIPAAYPFVVNATSNLNFLAFGINAENNQRNFLAGEKDNVVRQIERQVQELAFPGSAQDVERLLKKQRESWFVDAQPQQKEEGSKGRKGPFPSILGALY | no binding
6 | β-conglycinin β subunit mutant 39328-63 (other) MDYKDDDDKLKVREDENNPFWLRSSNSFQTLFENQNGRIRLLQRFNKRSPQLENLRDWRIVQFQSKPNTILLPHHADADFLLFVLSGRAILTLVNNDDRDSWNLHPGDAQRIPAGTTYYLVNWHDHQNLKIIKLAIPVNKPGRWDDFFLSSTQAQQSWLQGFSHNILETSFHSEFEEINRVLLGEEEEQRQQEGVIVELSKEQIRQLSRRAKSSSRKTISSEDEPFNLRSRNPIYSNNFGKFFEITPEKTWQLRDLDIFLSSVDINEGALLLPHFNSKAIVILVINEGDANIELVGIKEQQQKQKQEEEPLEVQRWRAELSEDDVFVIPAAYPFVVNATSNLNFLAFGINAENNQRNFLAGEKDNVVRQIERQVQELAFPGSAQDVERLLKKQRESWFVDAQPQQKEEGSKGRKGPFPSILGALY | no binding
7 | β-conglycinin β subunit mutant 39328-65 (other) MDYKDDDDKLKVREDENNPFWLRSSNSFQTLFENQNGRIRLLQRFNKRSPQLENLRDWRIVQFQSKPNTILLPHHADADFLLFVLSGRAILTLVNNDDRDSWNLHPGDAQRIPAGTTYYLVNWHDHQNLKIIKLAIPVNKPGRWDDFFLSSTQAQQSWLQGFSHNILETSFHSEFEEINRVLLGEEEEQRQQEGVIVELSKEQIRQLSRRAKSSSRKTISSEDEPFNLRSRNPIYSNNFGKFFEITPEKTPQLRDLDIFLSSVDINEGALLLPHFNSKAIVILVINEGDANIELVGIKEQQQKQKQEEEPLEVQRWRAELSEDDVFVIPAAWPFVVNATSNLNFLAFGINAENNQRNFLAGEKDNVVRQIERQVQELAFPGSAQDVERLLKKQRESWFVDAQPQQKEEGSKGRKGPFPSILGALY | no binding
